Numbered stars: 1 amine (or outer) side, 2 acyl side, 3 side chain; on linkers, the order of the positions; unused ones are H or OH. Square brackets hold non-standard residues; d marks the D form. Side chains are listed from the residue outwards. Ends that are not written are not given here. * marks the point of attachment. γGlu = O=C(O)[C@H](CCC(=O)[*:2])N[*:1]; Stearoyl = CCCCCCCCCCCCCCCCCC(=O)*; Palmitoyl = CCCCCCCCCCCCCCCC(=O)*; AEEA = NCCOCCOCC(=O)O; Aib = CC(C)(N)C(=O)O
T1: human GIP receptor (human, UniProt P48546 22-466)
T1 sequence (looked up): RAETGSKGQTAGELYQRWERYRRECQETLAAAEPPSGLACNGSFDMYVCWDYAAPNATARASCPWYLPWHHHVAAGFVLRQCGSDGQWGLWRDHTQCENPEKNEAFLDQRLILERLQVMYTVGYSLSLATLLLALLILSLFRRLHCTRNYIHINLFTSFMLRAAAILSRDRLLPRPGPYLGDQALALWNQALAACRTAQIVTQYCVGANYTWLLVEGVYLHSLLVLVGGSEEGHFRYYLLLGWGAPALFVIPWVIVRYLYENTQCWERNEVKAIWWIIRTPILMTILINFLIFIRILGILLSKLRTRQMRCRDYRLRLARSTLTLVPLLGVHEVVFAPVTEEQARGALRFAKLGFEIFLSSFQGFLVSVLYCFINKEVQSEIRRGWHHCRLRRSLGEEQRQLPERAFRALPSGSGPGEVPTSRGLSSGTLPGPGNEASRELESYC


Legend:
Assay in all cases: cell-based or functional assay
human GLP-1 receptor = human GLP-1 receptor (human, UniProt P43220 24-463)
human glucagon receptor = human glucagon receptor (human, UniProt P47871 26-477)
Sequence of human glucagon receptor (P47871 26-477): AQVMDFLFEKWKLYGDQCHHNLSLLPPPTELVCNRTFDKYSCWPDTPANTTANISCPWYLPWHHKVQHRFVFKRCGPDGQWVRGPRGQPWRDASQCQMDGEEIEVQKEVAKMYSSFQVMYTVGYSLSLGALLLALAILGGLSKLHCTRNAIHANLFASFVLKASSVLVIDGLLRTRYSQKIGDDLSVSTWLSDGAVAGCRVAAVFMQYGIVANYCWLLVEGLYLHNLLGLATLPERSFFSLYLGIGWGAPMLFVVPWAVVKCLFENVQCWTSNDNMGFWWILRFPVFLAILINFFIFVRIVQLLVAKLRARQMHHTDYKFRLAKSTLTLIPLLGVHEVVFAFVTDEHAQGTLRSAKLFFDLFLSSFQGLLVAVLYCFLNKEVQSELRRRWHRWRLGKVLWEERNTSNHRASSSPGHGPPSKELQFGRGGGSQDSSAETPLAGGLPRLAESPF

human GIP receptor = molecular target: T1, human GIP receptor

Binder | EC50 hGLP-1R (cAMP formation) (human GLP-1 receptor) | EC50 hGlucagon-R (cAMP formation) (human glucagon receptor) | EC50 hGIP-R (cAMP formation) (human GIP receptor)
H[dS]HGTFTSDLSKQK([γGlu-Stearoyl])DEEAVRLFIEWLKAGGPSSGAPPPS-NH2 (N-terminus assumed; SMILES CCCCCCCCCCCCCCCCCC(=O)N[C@@H](CCC(=O)NCCCC[C@H](NC(=O)[C@H](CCC(N)=O)NC(=O)[C@H](CCCCN)NC(=O)[C@H](CO)NC(=O)[C@H](CC(C)C)NC(=O)[C@H](CC(=O)O)NC(=O)[C@H](CO)NC(=O)[C@@H](NC(=O)[C@H](Cc1ccccc1)NC(=O)[C@@H](NC(=O)CNC(=O)[C@H](Cc1c[nH]cn1)NC(=O)[C@@H](CO)NC(=O)[C@@H](N)Cc1c[nH]cn1)[C@@H](C)O)[C@@H](C)O)C(=O)N[C@@H](CC(=O)O)C(=O)N[C@@H](CCC(=O)O)C(=O)N[C@@H](CCC(=O)O)C(=O)N[C@@H](C)C(=O)N[C@H](C(=O)N[C@@H](CCCNC(=N)N)C(=O)N[C@@H](CC(C)C)C(=O)N[C@@H](Cc1ccccc1)C(=O)N[C@H](C(=O)N[C@@H](CCC(=O)O)C(=O)N[C@@H](Cc1c[nH]c2ccccc12)C(=O)N[C@@H](CC(C)C)C(=O)N[C@@H](CCCCN)C(=O)N[C@@H](C)C(=O)NCC(=O)NCC(=O)N1CCC[C@H]1C(=O)N[C@@H](CO)C(=O)N[C@@H](CO)C(=O)NCC(=O)N[C@@H](C)C(=O)N1CCC[C@H]1C(=O)N1CCC[C@H]1C(=O)N1CCC[C@H]1C(=O)N[C@@H](CO)C(N)=O)[C@@H](C)CC)C(C)C)C(=O)O) [SEQ ID NO: 15] | 0.0044 nM | 0.064 nM | 0.555 nM
H-H[Aib]QGTFTSDLSKQK([γGlu-γGlu-Palmitoyl])EEEAVRLFIEWLKAGGPSSGAPPPS-NH2 (SMILES CCCCCCCCCCCCCCCC(=O)N[C@@H](CCC(=O)N[C@@H](CCC(=O)NCCCC[C@H](NC(=O)[C@H](CCC(N)=O)NC(=O)[C@H](CCCCN)NC(=O)[C@H](CO)NC(=O)[C@H](CC(C)C)NC(=O)[C@H](CC(=O)O)NC(=O)[C@H](CO)NC(=O)[C@@H](NC(=O)[C@H](Cc1ccccc1)NC(=O)[C@@H](NC(=O)CNC(=O)[C@H](CCC(N)=O)NC(=O)C(C)(C)NC(=O)[C@@H](N)Cc1c[nH]cn1)[C@@H](C)O)[C@@H](C)O)C(=O)N[C@@H](CCC(=O)O)C(=O)N[C@@H](CCC(=O)O)C(=O)N[C@@H](CCC(=O)O)C(=O)N[C@@H](C)C(=O)N[C@H](C(=O)N[C@@H](CCCNC(=N)N)C(=O)N[C@@H](CC(C)C)C(=O)N[C@@H](Cc1ccccc1)C(=O)N[C@H](C(=O)N[C@@H](CCC(=O)O)C(=O)N[C@@H](Cc1c[nH]c2ccccc12)C(=O)N[C@@H](CC(C)C)C(=O)N[C@@H](CCCCN)C(=O)N[C@@H](C)C(=O)NCC(=O)NCC(=O)N1CCC[C@H]1C(=O)N[C@@H](CO)C(=O)N[C@@H](CO)C(=O)NCC(=O)N[C@@H](C)C(=O)N1CCC[C@H]1C(=O)N1CCC[C@H]1C(=O)N1CCC[C@H]1C(=O)N[C@@H](CO)C(N)=O)[C@@H](C)CC)C(C)C)C(=O)O)C(=O)O) [SEQ ID NO: 24] | – | 0.261 nM | 0.0199 nM
H[Aib]QGTFTSDLSKQK([γGlu-Stearoyl])EEEAVRLFIEWLKAGGPSSGAPPPS-NH2 [SEQ ID NO: 6] | 0.0094 nM | 0.309 nM | 0.0607 nM
HXHGTFTSDLSKQKDEEAVRLFIEWLKAGGPSSGAPPPS (Aib at position 2; Lys 14 side-chain NH2 acylated with γE-x70 = (S)-4-Carboxy-4-octadecanoylamino-butyryl-; C-terminal amide (NH2)) [SEQ ID NO: 8] | – | 0.0245 nM | 0.0258 nM
HSHGTFTSDLSKQK([γGlu-Stearoyl])EEEAVRLFIEWLKAGGPSSGAPPPS-NH2 [SEQ ID NO: 10] | 0.0034 nM | 0.0069 nM | 0.0711 nM
H[dS]QGTFTSDLSKQK([γGlu-Stearoyl])DEEAVRLFIEWLKAGGPSSGAPPPS-NH2 (N-terminus assumed; SMILES CCCCCCCCCCCCCCCCCC(=O)N[C@@H](CCC(=O)NCCCC[C@H](NC(=O)[C@H](CCC(N)=O)NC(=O)[C@H](CCCCN)NC(=O)[C@H](CO)NC(=O)[C@H](CC(C)C)NC(=O)[C@H](CC(=O)O)NC(=O)[C@H](CO)NC(=O)[C@@H](NC(=O)[C@H](Cc1ccccc1)NC(=O)[C@@H](NC(=O)CNC(=O)[C@H](CCC(N)=O)NC(=O)[C@@H](CO)NC(=O)[C@@H](N)Cc1c[nH]cn1)[C@@H](C)O)[C@@H](C)O)C(=O)N[C@@H](CC(=O)O)C(=O)N[C@@H](CCC(=O)O)C(=O)N[C@@H](CCC(=O)O)C(=O)N[C@@H](C)C(=O)N[C@H](C(=O)N[C@@H](CCCNC(=N)N)C(=O)N[C@@H](CC(C)C)C(=O)N[C@@H](Cc1ccccc1)C(=O)N[C@H](C(=O)N[C@@H](CCC(=O)O)C(=O)N[C@@H](Cc1c[nH]c2ccccc12)C(=O)N[C@@H](CC(C)C)C(=O)N[C@@H](CCCCN)C(=O)N[C@@H](C)C(=O)NCC(=O)NCC(=O)N1CCC[C@H]1C(=O)N[C@@H](CO)C(=O)N[C@@H](CO)C(=O)NCC(=O)N[C@@H](C)C(=O)N1CCC[C@H]1C(=O)N1CCC[C@H]1C(=O)N1CCC[C@H]1C(=O)N[C@@H](CO)C(N)=O)[C@@H](C)CC)C(C)C)C(=O)O) [SEQ ID NO: 19] | 0.0035 nM | 0.129 nM | 0.4 nM
H-H[Aib]HGTFTSDLSKQK([AEEA-AEEA-γGlu-Palmitoyl])EEEAVRLFIEWLKAGGPSSGAPPPS-NH2 [SEQ ID NO: 27] | – | 0.0234 nM | 0.0095 nM
H-H[dS]QGTFTSDLSKQK([γGlu-γGlu-Palmitoyl])DEEAVRLFIEWLKAGGPSSGAPPPS-NH2 (SMILES CCCCCCCCCCCCCCCC(=O)N[C@@H](CCC(=O)N[C@@H](CCC(=O)NCCCC[C@H](NC(=O)[C@H](CCC(N)=O)NC(=O)[C@H](CCCCN)NC(=O)[C@H](CO)NC(=O)[C@H](CC(C)C)NC(=O)[C@H](CC(=O)O)NC(=O)[C@H](CO)NC(=O)[C@@H](NC(=O)[C@H](Cc1ccccc1)NC(=O)[C@@H](NC(=O)CNC(=O)[C@H](CCC(N)=O)NC(=O)[C@@H](CO)NC(=O)[C@@H](N)Cc1c[nH]cn1)[C@@H](C)O)[C@@H](C)O)C(=O)N[C@@H](CC(=O)O)C(=O)N[C@@H](CCC(=O)O)C(=O)N[C@@H](CCC(=O)O)C(=O)N[C@@H](C)C(=O)N[C@H](C(=O)N[C@@H](CCCNC(=N)N)C(=O)N[C@@H](CC(C)C)C(=O)N[C@@H](Cc1ccccc1)C(=O)N[C@H](C(=O)N[C@@H](CCC(=O)O)C(=O)N[C@@H](Cc1c[nH]c2ccccc12)C(=O)N[C@@H](CC(C)C)C(=O)N[C@@H](CCCCN)C(=O)N[C@@H](C)C(=O)NCC(=O)NCC(=O)N1CCC[C@H]1C(=O)N[C@@H](CO)C(=O)N[C@@H](CO)C(=O)NCC(=O)N[C@@H](C)C(=O)N1CCC[C@H]1C(=O)N1CCC[C@H]1C(=O)N1CCC[C@H]1C(=O)N[C@@H](CO)C(N)=O)[C@@H](C)CC)C(C)C)C(=O)O)C(=O)O) [SEQ ID NO: 23] | 0.0012 nM | 0.124 nM | 0.35 nM
H-H[Aib]HGTFTSDLSKQK([AEEA-AEEA-γGlu-Stearoyl])EEEAVRLFIEWLKAGGPSSGAPPPS-NH2 [SEQ ID NO: 28] | 0.0038 nM | 0.0171 nM | 0.017 nM
H-H[dS]HGTFTSDLSKQK([γGlu-γGlu-Palmitoyl])DEEAVRLFIEWLKAGGPSSGAPPPS-NH2 (SMILES CCCCCCCCCCCCCCCC(=O)N[C@@H](CCC(=O)N[C@@H](CCC(=O)NCCCC[C@H](NC(=O)[C@H](CCC(N)=O)NC(=O)[C@H](CCCCN)NC(=O)[C@H](CO)NC(=O)[C@H](CC(C)C)NC(=O)[C@H](CC(=O)O)NC(=O)[C@H](CO)NC(=O)[C@@H](NC(=O)[C@H](Cc1ccccc1)NC(=O)[C@@H](NC(=O)CNC(=O)[C@H](Cc1c[nH]cn1)NC(=O)[C@@H](CO)NC(=O)[C@@H](N)Cc1c[nH]cn1)[C@@H](C)O)[C@@H](C)O)C(=O)N[C@@H](CC(=O)O)C(=O)N[C@@H](CCC(=O)O)C(=O)N[C@@H](CCC(=O)O)C(=O)N[C@@H](C)C(=O)N[C@H](C(=O)N[C@@H](CCCNC(=N)N)C(=O)N[C@@H](CC(C)C)C(=O)N[C@@H](Cc1ccccc1)C(=O)N[C@H](C(=O)N[C@@H](CCC(=O)O)C(=O)N[C@@H](Cc1c[nH]c2ccccc12)C(=O)N[C@@H](CC(C)C)C(=O)N[C@@H](CCCCN)C(=O)N[C@@H](C)C(=O)NCC(=O)NCC(=O)N1CCC[C@H]1C(=O)N[C@@H](CO)C(=O)N[C@@H](CO)C(=O)NCC(=O)N[C@@H](C)C(=O)N1CCC[C@H]1C(=O)N1CCC[C@H]1C(=O)N1CCC[C@H]1C(=O)N[C@@H](CO)C(N)=O)[C@@H](C)CC)C(C)C)C(=O)O)C(=O)O) [SEQ ID NO: 21] | 0.0008 nM | 0.0859 nM | 0.0994 nM
H-H[Aib]HGTFTSDLSKQK([AEEA-AEEA-AEEA-Stearoyl])EEEAVRLFIEWLKAGGPSSGAPPPS-NH2 [SEQ ID NO: 29] | 0.0047 nM | 0.0179 nM | 0.0476 nM
